Non-standard residues stand in square brackets, D forms with d. No end group written: not given here. *: point of attachment. Biotin = O=C1N[C@H]2[C@H](CS[C@H]2CCCCC(=O)*)N1; pY = N[C@@H](Cc1ccc(OP(=O)(O)O)cc1)C(=O)O
B1: CD244 ITSM1,ITSM2 (equimolar mixture of single ITSM on chip) (other)
chain 1: Biotin-EFLTI[pY]EDVKD
chain 2: Biotin-GGSTI[pY]SMIQS
modifications: also: equimolar mixture of two separate peptides
B2: EAT-2 Y127 phosphopeptide (Biotin-NSNSDpYVDVLP) (peptide)
peptide: Biotin-NSNSD[pY]VDVLP
notes: EAT-2, human, tail with the conserved tyrosine motif Y127; also called EAT-2 pY127; EAT-2 tail phosphopeptide; source: synthetic peptide (Peptide Protein Research Ltd)
B3: LAT Y132 phosphopeptide (Biotin-HNPGpYLVVLPD) (peptide)
peptide: Biotin-HNPG[pY]LVVLPD
notes: LAT, human, stretch around Y132; also called LAT pY132; source: synthetic peptide (Peptide Protein Research Ltd)
B4: SIRPα ITIM1+ITIM2 tandem phosphopeptide (peptide)
peptide: Biotin-TNDIT[pY]ADLNLPKGKKPAPQAAEPNNHTE[pY]ASIQT
notes: SIRPα, human, cytoplasmic stretch with ITIM1 and ITIM2; source: synthetic peptide (Peptide Protein Research Ltd)
B5: CD244 ITSM1 phosphopeptide (Biotin-EFLTIpYEDVKD) (peptide)
peptide: Biotin-EFLTI[pY]EDVKD
notes: CD244 (SLAMF4), human, cytoplasmic ITSM1; also called SLAMF4 ITSM1; source: synthetic peptide (Peptide Protein Research Ltd)
B6: CRACC ITSM2 phosphopeptide (Biotin-PANTVpYSTVEI) (peptide)
peptide: Biotin-PANTV[pY]STVEI
notes: CRACC (SLAMF7), human, cytoplasmic ITSM2; also called SLAMF7 ITSM2; source: synthetic peptide (Peptide Protein Research Ltd)
B7: CD244 ITSM3+ITSM4 tandem phosphopeptide (peptide)
peptide: Biotin-PAYTL[pY]SLIQPSRKSGSRKRNHSPSFNSTI[pY]EVIGK
notes: CD244 (SLAMF4), human, cytoplasmic stretch with ITSM3 and ITSM4; source: synthetic peptide (Peptide Protein Research Ltd)
B8: CD244 ITSM1+ITSM2 tandem phosphopeptide (peptide)
peptide: Biotin-EFLTI[pY]EDVKDLKTRRNHEQEQTFPGGGSTI[pY]SMIQS
notes: CD244 (SLAMF4), human, cytoplasmic stretch with ITSM1 and ITSM2; also called tandem ITSM peptide; source: synthetic peptide (Peptide Protein Research Ltd)

Key:
Details in all cases: both partners purified
[1] = molecular target: T1, SHP-2 N-terminal + C-terminal (N+C) SH2 domains (human, UniProt Q06124 2-219); assay: SPR; biotinylated phosphopeptides immobilised on streptavidin chip (about 25 RU single, 50 RU tandem motifs); soluble recombinant protein injected; 37°C; HBS-EP; equilibrium binding (Table 4; same-day purification not given)
T1 construct: SHP-2, human, N-terminal + C-terminal SH2 domains, aa 2–219; also called SHP-2 (SH2-SH2); SHP2 N+C SH2; source: E. coli BL21(DE3)pLysS, purified (Oxford Protein Production Facility / in house; size exclusion chromatography)
T1 sequence (looked up): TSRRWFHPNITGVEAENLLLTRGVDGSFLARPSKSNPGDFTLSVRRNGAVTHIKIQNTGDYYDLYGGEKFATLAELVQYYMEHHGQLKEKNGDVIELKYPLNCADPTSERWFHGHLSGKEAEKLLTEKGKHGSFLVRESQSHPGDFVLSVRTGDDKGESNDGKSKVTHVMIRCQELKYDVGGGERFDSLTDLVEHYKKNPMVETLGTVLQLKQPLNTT

[2] = molecular target: T2, PLCγ2 SH2-SH2-SH3 (tandem SH2 domains plus the SH3 domain of PLCγ2) (human, UniProt P16885 519-838); assay: SPR; biotinylated phosphopeptides immobilised on streptavidin chip (about 25 RU single motifs); soluble recombinant protein injected in two-fold dilutions; 37°C; HBS-EP (10 mM HEPES pH 7.4, 150 mM NaCl, 3.4 mM EDTA, 0.005% P20); equilibrium binding, one-site model; proteins purified on the same day as SPR (Tables 1 and 6)
T2 construct: PLCγ2, human, tandem SH2 domains plus SH3 domain, aa 519–838; Printed MW = 42415 of the recombinant protein; also called recombinant PLCγ2 SH2 domains; source: E. coli BL21(DE3)pLysS, purified (Co2+ or Ni2+ column, size exclusion chromatography, same day as SPR)
T2 sequence: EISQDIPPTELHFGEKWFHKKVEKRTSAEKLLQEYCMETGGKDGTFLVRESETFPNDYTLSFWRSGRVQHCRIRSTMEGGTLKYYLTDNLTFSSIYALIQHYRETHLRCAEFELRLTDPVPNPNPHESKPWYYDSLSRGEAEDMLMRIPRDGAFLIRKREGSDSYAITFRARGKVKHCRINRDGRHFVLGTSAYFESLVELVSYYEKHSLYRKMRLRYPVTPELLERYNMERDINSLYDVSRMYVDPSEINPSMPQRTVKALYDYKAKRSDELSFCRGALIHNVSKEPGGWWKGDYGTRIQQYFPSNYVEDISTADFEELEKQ

[3] = molecular target: T3, PLCγ1 SH2-SH2-SH3 (tandem SH2 domains plus the SH3 domain of PLCγ1) (human, UniProt P19174 536-863); assay: as above
T3 construct: PLCγ1, human, tandem SH2 domains plus SH3 domain, aa 536–863; Printed MW = 42531 of the recombinant protein; also called recombinant PLCγ1; source: E. coli BL21(DE3)pLysS, purified (Co2+ or Ni2+ column, size exclusion chromatography, same day as SPR)
T3 sequence: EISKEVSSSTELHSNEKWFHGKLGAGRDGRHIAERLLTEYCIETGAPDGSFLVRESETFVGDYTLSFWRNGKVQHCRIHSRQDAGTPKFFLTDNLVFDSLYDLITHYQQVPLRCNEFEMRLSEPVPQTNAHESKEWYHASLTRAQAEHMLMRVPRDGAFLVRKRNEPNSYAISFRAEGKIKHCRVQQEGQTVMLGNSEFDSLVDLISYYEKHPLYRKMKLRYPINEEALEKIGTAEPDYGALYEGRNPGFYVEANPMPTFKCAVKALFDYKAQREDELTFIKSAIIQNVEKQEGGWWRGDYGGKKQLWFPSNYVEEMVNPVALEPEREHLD

[4] = molecular target: T1, SHP-2 N-terminal + C-terminal (N+C) SH2 …; assay: SPR; biotinylated tandem phosphopeptides immobilised on streptavidin chip; SHP-2 N+C SH2 injected; 25°C; HBS-EP; equilibrium binding (Table 4)
[5] = molecular target: T4, EAT-2 (recombinant full-length human EAT-2) (human, UniProt O14796 1-132); assay: SPR; biotinylated phosphopeptides immobilised on streptavidin chip (about 25 RU single motifs); soluble recombinant protein injected in two-fold dilutions; 37°C; HBS-EP (10 mM HEPES pH 7.4, 150 mM NaCl, 3.4 mM EDTA, 0.005% P20); equilibrium binding, one-site model; proteins purified on the same day as SPR (Tables 1 and 6)
T4 construct: EAT-2, human, full length; source: E. coli BL21(DE3)pLysS, purified (Co2+ or Ni2+ column, size exclusion chromatography)
T4 sequence (looked up): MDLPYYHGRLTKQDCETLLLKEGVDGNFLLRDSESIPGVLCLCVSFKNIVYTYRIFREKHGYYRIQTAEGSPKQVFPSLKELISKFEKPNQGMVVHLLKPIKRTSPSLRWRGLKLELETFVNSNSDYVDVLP

[6] = molecular target: T5, SHIP SH2 (SH2 domain from human SHIP-1) (human, UniProt Q92835 5-101); assay: SPR; biotinylated phosphopeptides immobilised on streptavidin chip (about 25 RU single, 50 RU tandem motifs); soluble recombinant protein injected; 37°C; HBS-EP; equilibrium binding (Table 4; same-day purification not given)
T5 construct: SHIP-1, human, single SH2 domain; also called hSHIP SH2; SHIP-1 SH2 domain; source: E. coli BL21(DE3)pLysS, purified (Co2+ or Ni2+ column, size exclusion chromatography)
T5 sequence (looked up): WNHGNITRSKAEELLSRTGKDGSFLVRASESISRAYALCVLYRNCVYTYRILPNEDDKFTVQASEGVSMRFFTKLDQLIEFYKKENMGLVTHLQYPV

[7] = molecular target: T4, EAT-2 (recombinant full-length human …); assay: as above
[8] = molecular target: T6, SAP (recombinant full-length human SAP) (human, UniProt O60880 1-128); assay: SPR; biotinylated phosphopeptides immobilised on streptavidin chip (about 25 RU single motifs); soluble recombinant protein injected in two-fold dilutions; 37°C; HBS-EP (10 mM HEPES pH 7.4, 150 mM NaCl, 3.4 mM EDTA, 0.005% P20); equilibrium binding, one-site model; proteins purified on the same day as SPR (Tables 1 and 6)
T6 construct: SAP, human, full length; also called SH2D1A; source: E. coli BL21(DE3)pLysS, purified (Co2+ or Ni2+ column, size exclusion chromatography)
T6 sequence (looked up): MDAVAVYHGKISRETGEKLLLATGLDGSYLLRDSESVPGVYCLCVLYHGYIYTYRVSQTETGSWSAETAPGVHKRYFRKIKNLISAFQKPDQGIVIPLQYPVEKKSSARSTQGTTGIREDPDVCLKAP

Binder | Kd [1] [nM] | Kd [2] [nM] | Kd [3] [nM] | Kd [4] [nM] | further results
B1 | 22000 |  |  |  | 
B2 |  | 30 | 10 |  | 
B3 |  | 20 | 20 |  | 
B4 | 1000 |  |  | 500 | 
B5 | 29000 | 210 | 800 |  | Kd [5]: 20 nM; Kd [6]: 11000 nM; Kd [7]: 60 nM
B6 |  |  |  |  | Kd [8]: 440 nM; Kd [5]: 3 nM
ENTITYSLLMH (also: phosphorylated, site not given here, biotinylated, site not given here) [FCRγIIb (CD32) phosphopeptide] |  |  |  |  | Kd [6]: 470 nM
EDTLTYADLDMVHLNRTPKQPAPKPEPSFSEYASVQV (also: phosphorylated, sites not given here, biotinylated, site not given here) [SIRPα ITIM3+ITIM4 tandem phosphopeptide] |  |  |  | 6400 | 
B7 | 10000 |  |  | 7400 | 
B8 | 2200 |  |  | 1400 | 

From paper PMC3958483 (PLoS ONE, 2014)
